T1: Dimeric human CD48-mFc (human)
T1 construct: the whole entry is the construct; also called hCD48-mFc
T1 chain: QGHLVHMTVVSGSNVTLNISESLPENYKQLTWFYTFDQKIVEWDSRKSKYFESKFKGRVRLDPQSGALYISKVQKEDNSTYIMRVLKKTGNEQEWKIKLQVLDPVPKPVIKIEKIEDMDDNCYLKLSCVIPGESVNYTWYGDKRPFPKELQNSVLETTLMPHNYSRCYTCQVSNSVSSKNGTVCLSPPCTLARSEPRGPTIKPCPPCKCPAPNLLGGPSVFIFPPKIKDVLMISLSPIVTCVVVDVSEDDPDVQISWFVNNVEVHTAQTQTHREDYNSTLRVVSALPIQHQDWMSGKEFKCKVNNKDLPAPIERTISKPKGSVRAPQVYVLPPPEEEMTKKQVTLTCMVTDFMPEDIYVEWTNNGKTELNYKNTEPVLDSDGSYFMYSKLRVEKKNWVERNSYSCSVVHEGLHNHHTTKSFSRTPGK

T2: Monomeric human CD48-mmH (human)
T2 chain: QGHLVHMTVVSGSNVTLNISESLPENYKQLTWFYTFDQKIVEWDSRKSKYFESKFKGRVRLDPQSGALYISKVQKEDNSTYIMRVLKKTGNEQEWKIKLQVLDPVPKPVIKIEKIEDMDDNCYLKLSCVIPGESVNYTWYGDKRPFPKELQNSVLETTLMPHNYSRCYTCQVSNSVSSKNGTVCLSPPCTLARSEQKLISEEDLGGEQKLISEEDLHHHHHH

T3: Dimeric monkey CD48-mFc (monkey)
T3 construct: Soluble monkey CD48 with a C-terminal Fc fusion [mFc]; the whole entry is the construct
T3 chain: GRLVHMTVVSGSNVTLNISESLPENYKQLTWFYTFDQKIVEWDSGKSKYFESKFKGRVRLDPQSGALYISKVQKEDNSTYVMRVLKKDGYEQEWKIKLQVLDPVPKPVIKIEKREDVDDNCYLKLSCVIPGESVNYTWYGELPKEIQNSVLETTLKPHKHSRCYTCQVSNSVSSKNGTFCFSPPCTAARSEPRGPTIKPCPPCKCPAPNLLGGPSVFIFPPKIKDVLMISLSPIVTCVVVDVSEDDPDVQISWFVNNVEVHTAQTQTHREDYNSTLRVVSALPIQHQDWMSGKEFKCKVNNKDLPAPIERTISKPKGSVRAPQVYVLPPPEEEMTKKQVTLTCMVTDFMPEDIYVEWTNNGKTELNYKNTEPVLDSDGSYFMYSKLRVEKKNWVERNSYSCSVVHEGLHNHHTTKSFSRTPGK

T4: Monomeric monkey CD48-mmH (monkey)
T4 construct: Soluble monkey CD48 with a myc-myc-hexa-histidine C-terminal tag; the whole entry is the construct; also called mfCD48-mmH
T4 chain: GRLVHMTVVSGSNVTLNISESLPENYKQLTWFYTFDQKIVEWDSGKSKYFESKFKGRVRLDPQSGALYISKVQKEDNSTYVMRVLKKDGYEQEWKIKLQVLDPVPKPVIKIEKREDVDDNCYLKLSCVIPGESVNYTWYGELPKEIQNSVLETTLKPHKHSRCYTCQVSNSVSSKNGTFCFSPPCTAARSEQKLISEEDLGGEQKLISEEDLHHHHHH

T5: human CD48 (on primary human peripheral blood mononuclear cells) (human, UniProt P09326 27-220)
T5 sequence: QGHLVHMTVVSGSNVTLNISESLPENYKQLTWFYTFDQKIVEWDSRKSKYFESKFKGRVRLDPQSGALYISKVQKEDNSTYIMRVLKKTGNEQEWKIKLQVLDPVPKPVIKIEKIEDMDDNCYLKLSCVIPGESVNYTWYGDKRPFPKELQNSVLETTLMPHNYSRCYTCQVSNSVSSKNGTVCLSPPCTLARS


Columns and labels:
[1] = molecular target: T1, Dimeric human CD48-mFc; test: SPR (Biacore), antibody captured by anti-Fc, CD48 in solution, 37 C
Protocol: (§1) Measurements were conducted on a T100-2 BIACORE™ instrument (Biacore Life Sciences division of GE Healthcare, Piscataway, N.J.). Antibodies (either with mouse Fc [designated “H2M” or “H3M”] or human IgG4 Fc [designated “H4H”]) were captured through an anti-Fc chip surface, and CD48 was flowed over the surface either in a monomeric (soluble CD48 expressed with a myc-myc-hexa-histidine C-terminal tag [mmH]) or dimeric (soluble CD48 expressed with a C-terminal Fc fusion [mFc]) format.
(§2) The soluble CD48 was applied to the flow cell in separate injections at different concentrations, and kinetic association (kₐ) and dissociation (kd) rate constants were determined by fits to the kinetic binding data using Biacore software. Binding dissociation equilibrium constants and dissociation half-times were calculated from the kinetic rate constants as: KD=kd/kₐ; t_{1/2}=(ln 2/kd) (units: ka=M⁻¹*s⁻¹; kd=s⁻¹; KD=M; T½=min) (Tables 3-6).

[2] = molecular target: T2, Monomeric human CD48-mmH; test: as above
Protocol: as §1, §2

[3] = molecular target: T3, Dimeric monkey CD48-mFc; test: as above
Protocol: as §1, §2

[4] = molecular target: T4, Monomeric monkey CD48-mmH; test: as above
Protocol: as §1, §2

[5] = molecular target: T3, Dimeric monkey CD48-mFc; test: SPR (Biacore), antibody captured by anti-Fc, CD48 in solution, 25 C
Protocol: as §1, §2

[6] = molecular target: T4, Monomeric monkey CD48-mmH; test: as above
Protocol: as §1, §2

[7] = molecular target: T5, human CD48 (on primary human peripheral …); test: cell-based or functional assay
[8] = molecular target: T5, human CD48 (on primary human peripheral …); test: cell-based or functional assay; remark: listed apart in the source

Row | Binder | Kd [1] | T½ [1] | koff [1] | kon [1] | Kd [2] | T½ [2] | koff [2] | kon [2] | Kd [3] | T½ [3] | koff [3] | kon [3] | Kd [4] | T½ [4] | koff [4] | kon [4] | Kd [5] | T½ [5] | koff [5] | kon [5] | other results
1 | H4H1781P (antibody, human IgG4, V domains shown, Human IgG4 Fc (H4H)) VH: QVQLVESGGGVVQPGRSLRLSCAASGFTFSNYGMHWVRQAPGKGLEWVAVIWYDDSNKNYADSVKGRFTISRDNSKNTLYLQMNSLRVEDTAVYYCARDRWTYSHFFEYWGQGTLVTVSS VL: DIQMTQSPSSVSASVGDRVTITCRASQGISSWLAWYQQKPGKAPNLLIYAASSLQSGVPSRFGGSGSGTDFSLTISGLQPEDFATYYCQQANSFPRTFGQGTKVEIK | 60.3 pM | 3.93 h | 4.89e-05 s⁻¹ | 812000 M⁻¹ s⁻¹ | 448 pM | 1.9 h | 0.000101 s⁻¹ | 226000 M⁻¹ s⁻¹ | 75.5 pM | 2.92 h | 6.61e-05 s⁻¹ | 875000 M⁻¹ s⁻¹ | 875 pM | 0.633 h | 0.000307 s⁻¹ | 350000 M⁻¹ s⁻¹ | 35.6 pM | 9.03 h | 2.13e-05 s⁻¹ | 599000 M⁻¹ s⁻¹ | Kd [6]: 262 pM; T½ [6]: 2.47 h; koff [6]: 7.8e-05 s⁻¹; kon [6]: 298000 M⁻¹ s⁻¹
2 | H4H1769Pa (antibody, human IgG4, V domains shown) VH: QVQLVQSGAEVKKPGASVKVSCKTSGYTFAGYGITWVRQAPGRGLEWMGWVSAYNGDTDYAQSLQGRVTMTTDTSTSTAYMELRSLRSDDTAMYYCARDRYSSSSGYFDYWGQGTLVTVSS VL: DIQMTQSPSSVSASVGDRVTITCRASQGISSWLAWHQQKPGKAPKVLIYAASSLHSGVPSRFSGSGSGTEFTLTISSLQPEDFATYYCQQANTFPYTFGQGTKLEIK |  |  |  |  |  |  |  |  |  |  |  |  |  |  |  |  |  |  |  |  | % Blockade of IFNγ release, MLR; D2 [7]: 60%; % Blockade of IFNγ release, MLR; D3 [7]: 39%; % Blockade of IFNγ release, MLR; D5 [7]: 43%; % Blockade of IFNγ release, MLR; D6 [7]: 60%; % Blockade of IFNγ release, MLR; D7 [7]: 51%; % Blockade of IFNγ release, MLR; D8 [7]: 40%; Inhibition of IFN-gamma Release IC50; Donor 9 [8]: 5.7e-12 Molar; Inhibition of IFN-gamma Release IC50; Donor 11 [8]: 1.9e-11 Molar
3 | H4H1778P (antibody, human IgG4, V domains shown, Human IgG4 Fc (H4H)) VH: QVQLVESGGGVVQPGRSLRLSCAASGFTFSNYGMHWVRQAPGKGLEWVAVIWYDESSKYYTDSVKGRFTISRDNSQNTLYLQMTSLRAEDTAVYYCARDRWTYSHYFEYWGQGTLVTVSS VL: DIQMTQSPSSVSASVGDRVTITCRASQGISSWVAWYQQKPGKAPKLLIYAASSLQSGVPSRFSGSGSGTDFTLTISSLQPEDFATYYCQQANSFPRTFGQGTKVEIK | 74.6 pM | 5.45 h | 3.53e-05 s⁻¹ | 473000 M⁻¹ s⁻¹ | 837 pM | 1.7 h | 0.000113 s⁻¹ | 135000 M⁻¹ s⁻¹ | 68.6 pM | 5.35 h | 3.6e-05 s⁻¹ | 525000 M⁻¹ s⁻¹ | 1340 pM | 0.767 h | 0.000253 s⁻¹ | 189000 M⁻¹ s⁻¹ | 46 pM | 10.9 h | 1.77e-05 s⁻¹ | 384000 M⁻¹ s⁻¹ | Kd [6]: 325 pM; T½ [6]: 2.15 h; koff [6]: 8.98e-05 s⁻¹; kon [6]: 276000 M⁻¹ s⁻¹
4 | H4H1775P (antibody, human IgG4, V domains shown, Human IgG4 Fc (H4H)) VH: QVQLVESGGGVVQPGRSLRLSCAASGFTFSNYGMHWVRQAPGKGLEWVAVIWYDESGKHYADSVKGRFTISRDNSQNTLYLQMTSLRAEDTAVYYCARDRWTYSHYFEYWGQGTLVTVSS VL: DIQMTQSPSSVSASVGDRVTITCRASQDISSWVAWYQQKPGKAPKLLIYAASSLQSGVPSRFSGSGSGTDFTLTISSLQPEDFATYYCQQANSFPRTFGQGTKVEIK | 43.4 pM | 8.48 h | 2.27e-05 s⁻¹ | 522000 M⁻¹ s⁻¹ | 536 pM | 2.03 h | 9.48e-05 s⁻¹ | 177000 M⁻¹ s⁻¹ | 59.3 pM | 4.85 h | 3.97e-05 s⁻¹ | 669000 M⁻¹ s⁻¹ | 498 pM | 1.5 h | 0.000129 s⁻¹ | 260000 M⁻¹ s⁻¹ | 13.5 pM | 29.2 h | 6.6e-06 s⁻¹ | 488000 M⁻¹ s⁻¹ | Kd [6]: 140 pM; T½ [6]: 4.73 h; koff [6]: 4.07e-05 s⁻¹; kon [6]: 291000 M⁻¹ s⁻¹
5 | H4H1779P (antibody, human IgG4, V domains shown, Human IgG4 Fc (H4H)) VH: QVQLVESGGGVVQPGRSLRLSCAASGFTFSNYGMHWVRQAPGKGLEWVAVIWYDESSKHYADSVKGRFTISRDNSQNTLYLQMTSLRAEDTAVYYCARDRWTYSHYFEYWGQGTLVTVSS VL: DIQMTQSPSSVSASVGDRVTITCRASQDISSWVAWYQQKPGKAPKLLIYAASSLQSGVPSRFSGSGSGTDFTLTISSLQPEDFATYYCQQANSFPRTFGQGTKVEIK | 59.4 pM | 4.2 h | 4.59e-05 s⁻¹ | 772000 M⁻¹ s⁻¹ | 495 pM | 1.88 h | 0.000102 s⁻¹ | 207000 M⁻¹ s⁻¹ | 82.9 pM | 3.22 h | 5.98e-05 s⁻¹ | 721000 M⁻¹ s⁻¹ | 1040 pM | 0.667 h | 0.000289 s⁻¹ | 277000 M⁻¹ s⁻¹ | 60.6 pM | 6.07 h | 3.17e-05 s⁻¹ | 522000 M⁻¹ s⁻¹ | Kd [6]: 375 pM; T½ [6]: 1.7 h; koff [6]: 0.000113 s⁻¹; kon [6]: 301000 M⁻¹ s⁻¹
6 | H4H1789Pa (antibody, V domains shown, Human IgG4 Fc (H4H)) VH: EVQLLESGGGLVHPGGSLRLSCAASGFTFGGYAMSWVRQAPGKGLEWVSLISGSGGSTYYADSVKGRFTIFRDNSKNTLYLQMISLRAEDSAVYYCAKYSNYDYFDPWGQGTLVTVSS VL: not shown | 161 pM | 5.4 h | 3.57e-05 s⁻¹ | 221000 M⁻¹ s⁻¹ | 8970 pM | 0.1 h | 0.00179 s⁻¹ | 199000 M⁻¹ s⁻¹ | 776 pM | 0.25 h | 0.000768 s⁻¹ | 990000 M⁻¹ s⁻¹ | 4710 pM | 0.1 h | 0.00206 s⁻¹ | 437000 M⁻¹ s⁻¹ | 423 pM | 0.7 h | 0.000276 s⁻¹ | 651000 M⁻¹ s⁻¹ | Kd [6]: 3310 pM; T½ [6]: 0.133 h; koff [6]: 0.00138 s⁻¹; kon [6]: 416000 M⁻¹ s⁻¹

From patent US20130230533A1 (Regeneron, published 2013)
